Experimental data as given in the supplement of paper PMC5998384.

Key:
HeLa Kyoto [1] = test: thermal stability score vs G1/S (z-score of summed log2 fold changes over temperatures); higher = more thermally stable than in G1/S
HeLa Kyoto [2] = test: melting temperature (median over replicates), in situ; higher = more thermally stable
HeLa Kyoto [3] = test: solubility in G1/S (NP-40 vs SDS abundance) (log2 ratio); higher = more soluble; conditions: cell cycle stage: G1/S
HeLa Kyoto [4] = test: solubility change mitosis vs G1/S (difference of NP-40 vs SDS log2 ratios) (log2 ratio difference); higher = more soluble in mitosis
[5] = cell cycle stage: early G1 (4.5 h after nocodazole release)
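For melting temperature (median over replicates), in situ in this document: HeLa Kyoto cells synchronized by double thymidine or nocodazole block, proteins quantified by TMT10plex mass spectrometry, three independent biological replicates.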
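For solubility change mitosis vs G1/S (difference of NP-40 vs SDS log2 ratios) in this document: synchronized HeLa Kyoto cells (double thymidine block for G1/S, nocodazole release for mitosis), protein amounts in NP-40 versus SDS lysates quantified by mass spectrometry, three biological replicates.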
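For solubility in G1/S (NP-40 vs SDS abundance) in this document: HeLa Kyoto cells arrested at G1/S by double thymidine block, proteins quantified by TMT10plex mass spectrometry in mild NP-40 versus SDS extracts, three biological replicates.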
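For thermal stability score vs G1/S (z-score of summed log2 fold changes over temperatures) in this document: synchronized HeLa Kyoto cells, proteins quantified by TMT10plex mass spectrometry, three biological replicates, mitosis taken 0.5 h after nocodazole release, G1/S directly after double thymidine block.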

| Sequence | thermal stability score (HeLa Kyoto [1]; [5]) | thermal stability score (HeLa Kyoto [1]; cell cycle stage: mitosis) | melting temperature (HeLa Kyoto [2]; cell cycle stage: G1/S) | melting temperature (HeLa Kyoto [2]; cell cycle stage: mitosis) | solubility in G1/S (log2) (HeLa Kyoto [3]) | solubility change mitosis (log2) (HeLa Kyoto [4]) |
| --- | --- | --- | --- | --- | --- | --- |
| MTKKRKRQHDFQKVKLKVGKKKPKLQNATPTNFKTKTIHLPEQLKEDGTLPTNNRKLNIKDLLSQMHHYNAGVKQSALLGLKDLLSQYPFIIDAHLSNILSEVTAVFTDKDANVRLAAVQLLQFLAPKIRAEQISPFFPLVSAHLSSAMTHITEGIQEDSLKVLDILLEQYPALITGRSSILLKNFVELISHQQLSKGLINRDRSQSWILSVNPNRRLTSQQWRLKVLVRLSKFLQALADGSSRLRESEGLQEQKENPHATSNSIFINWKEHANDQQHIQVYENGGSQPNVSSQFRLRYLVGGLSGVDEGLSSTENLKGFIEIIIPLLIECWVEAVPPQLATPVGNGIEREPLQVMQQVLNIISLLWKLSKQQDETHKLESWLRKNYLIDFKHHFMSRFPYVLKEITKHKRKEPNKSIKHCTVLSNNIDHLLLNLTLSDIMVSLANASTLQKDCSWIEMIRKFVTETLEDGSRLNSKQLNRLLGVSWRLMQIQPNREDTETLIKAVYTLYQQRGLILPVRTLLLKFFSKIYQTEELRSCRFRYRSKVLSRWLAGLPLQLAHLGSRNPELSTQLIDIIHTAAARANKELLKSLQATALRIYDPQEGAVVVLPADSQQRLVQLVYFLPSLPADLLSRLSRCCIMGRLSSSLAAMLIGILHMRSSFSGWKYSAKDWLMSDVDYFSFLFSTLTGFSKEELTWLQSLRGVPHVIQTQLSPVLLYLTDLDQFLHHWDVTEAVFHSLLVIPARSQNFDILQSAISKHLVGLTVIPDSTAGCVFGVICKLLDHTCVVSETLLPFLASCCYSLLYFLLTIEKGEAEHLRKRDKLWGVCVSILALLPRVLRLMLQSLRVNRVGPEELPVVGQLLRLLLQHAPLRTHMLTNAILVQQIIKNITTLKSGSVQEQWLTDLHYCFNVYITGHPQGPSALATVY [TEX10] | -1.74 | -4.37 | 54.3 °C | 52 °C | -1.92 | 0.921 |
| MTKREAEELIEIEIDGTEKAECTEESIVEQTYAPAECVSQAIDINEPIGNLKKLLEPRLQCSLDAHEICLQDIQLDPERSLFDQGVKTDGTVQLSVQVISYQGIEPKLNILEIVKPADTVEVVIDPDAHHAESEAHLVEEAQVITLDGTKHITTISDETSEQVTRWAAALEGYRKEQERLGIPYDPIQWSTDQVLHWVVWVMKEFSMTDIDLTTLNISGRELCSLNQEDFFQRVPRGEILWSHLELLRKYVLASQEQQMNEIVTIDQPVQIIPASVQSATPTTIKVINSSAKAAKVQRAPRISGEDRSSPGNRTGNNGQIQLWQFLLELLTDKDARDCISWVGDEGEFKLNQPELVAQKWGQRKNKPTMNYEKLSRALRYYYDGDMICKVQGKRFVYKFVCDLKTLIGYSAAELNRLVTECEQKKLAKMQLHGIAQPVTAVALATASLQTEKDN [GABPA] | 0.986 | 1.79 | 48 °C | 49.9 °C | 0.0182 | -0.178 |
| MTLDVGPEDELPDWAAAKEFYQKYDPKDVIGRGVSSVVRRCVHRATGHEFAVKIMEVTAERLSPEQLEEVREATRRETHILRQVAGHPHIITLIDSYESSSFMFLVFDLMRKGELFDYLTEKVALSEKETRSIMRSLLEAVSFLHANNIVHRDLKPENILLDDNMQIRLSDFGFSCHLEPGEKLRELCGTPGYLAPEILKCSMDETHPGYGKEVDLWACGVILFTLLAGSPPFWHRRQILMLRMIMEGQYQFSSPEWDDRSSTVKDLISRLLQVDPEARLTAEQALQHPFFERCEGSQPWNLTPRQRFRVAVWTVLAAGRVALSTHRVRPLTKNALLRDPYALRSVRHLIDNCAFRLYGHWVKKGEQQNRAALFQHRPPGPFPIMGPEEEGDSAAITEDEAVLVLG [PHKG2] | -0.266 | 0.0815 | 50.4 °C | 50.7 °C | -0.0283 | -0.298 |
| MTLQWAAVATFLYAEIGLILIFCLPFIPPQRWQKIFSFNVWGKIATFWNKAFLTIIILLIVLFLDAVREVRKYSSVHTIEKSSTSRPDAYEHTQMKLFRSQRNLYISGFSLFFWLVLRRLVTLITQLAKELSNKGVLKTQAENTNKAAKKFMEENEKLKRILKSHGKDEECVLEAENKKLVEDQEKLKTELRKTSDALSKAQNDVMEMKMQSERLSKEYDQLLKEHSELQDRLERGNKKRL [BCAP29] | -4.11 | -5.19 | 55.3 °C | 52.6 °C | -0.242 | -0.00377 |
| MTPLCPRPALCYHFLTSLLRSAMQNARGARQRAEAAVLSGPGPPLGRAAQHGIPRPLSSAGRLSQGCRGASTVGAAGWKGELPKAGGSPAPGPETPAISPSKRARPAEVGGMQLRFARLSEHATAPTRGSARAAGYDLYSAYDYTIPPMEKAVVKTDIQIALPSGCYGRVAPRSGLAAKHFIDVGAGVIDEDYRGNVGVVLFNFGKEKFEVKKGDRIAQLICERIFYPEIEEVQALDDTERGSGGFGSTGKN [DUT] | 0.243 | -0.204 | 53.2 °C | 53.5 °C | 0.483 | -0.0703 |
